Assay [1] concerns the target T1, human SIRPγ expressed on cells (human, UniProt Q9P1W8 29-387).
T1 construct: Endogenous SIRPγ on Jurkat T-ALL cells and on human CD3+ T cells; also called SIRPγ expressing Jurkat cells; Human T Cells Expressing SIRPγ
In words: flow cytometry on activated human CD3 T cells expressing SIRPγ. As for the experimental part: (§1) Human CD3 T cells, isolated from peripheral blood mononuclear cells (Astarte Biologics) were incubated in 96-well V-bottom plates at 2.5 \ 10⁵ cells/well for 1 h at 37° C., 5% CO₂ with serial dilutions of SIRP mAbs in binding buffer containing 1 mM EDTA (Sigma Aldrich), 1% FBS (Biowest) in PBS (Corning). The cells were then washed and stained for 45 min under the same conditions with donkey anti-mouse IgG fluorescein isothiocyanate (FITC)-linked secondary antibody (Jackson ImmunoResearch Laboratories). The cells were subsequently stained with anti-CD3 conjugated to 3-carboxy-6,8-difluoro-7-hydroxycoumarin (Pacific Blue) fluorophore (BioLegend) for 30 min on ice, washed and analyzed by flow cytometry (Attune, Life Technologies). Binding was assessed as the median FITC fluorescence intensity of CD3⁺ cells, subtracted from CD3⁺ cells stained with the secondary antibody only. All SIRP antibodies were generated in-house except for LSB2.20 (BioLegend). For activated T cells, prior to the binding assay CD3 T cells were activated for 72 h in a 96-well flat-bottom plate coated with 10 μg/ml anti-CD3 (clone UCHT1; BioLegend), at 1×10⁵ cells/well in the presence of 0.5 μg/ml anti-CD28 (clone CD28.2; BioLegend).

The target of assay [2] is T1, human SIRPγ expressed on cells. In words: flow cytometry on naive human CD3 T cells expressing SIRPγ. The method, then:
as §1

Assay [3] shares this target. In words: flow cytometry on naive human CD3 T cells expressing SIRPγ (second column). As for the experimental part:
as §1

Assay [4] concerns the target T2, human SIRPα expressed on cells (human, UniProt P78324 31-504).
T2 construct: whole, on cells; Endogenous SIRPα of THP-1 cells and of donor-derived macrophages and dendritic cells; also called SIRPα expressing THP-1 cells; cell-expressed SIRPα on dendritic cells and/or macrophages
In words: flow cytometry on human monocyte-derived dendritic cells; apparent Kd. As for the experimental part:
(§2) Human CD14⁺ monocytes, isolated from peripheral blood mononuclear cells (Astarte Biologics) were differentiated in vitro for seven days into macrophages or dendritic cells. For macrophage differentiation, monocytes were incubated in AIM-V media (Life Technologies) supplemented with 50 ng/ml M-CSF (Biolegend) for seven days. For dendritic cell differentiation, monocytes were incubated in AIM-V media (Life Technologies) in the presence of 10% human AB serum (Valley Biomedical), 200 ng/ml GM-CSF (Biolegend) and 50 ng/ml IL-4 (Biolegend). The cells were incubated for 1 h at 37° C., 5% CO₂ with serial dilutions of SIRP mAbs in binding buffer containing 1 mM EDTA (Sigma Aldrich) and 1% FBS (Biowest) in PBS (Corning). The cells were then washed and stained for 45 min under the same conditions with donkey anti-mouse IgG fluorescein isothiocyanate (FITC)-linked secondary antibody (Jackson ImmunoResearch Laboratories). The cells were subsequently stained with anti-CD14 or anti-CD11c conjugated to Alexa Fluor 647 fluorophore (Life Technologies and Biolegend, respectively) for 30 min on ice, washed and analyzed by flow cytometry (Attune, Life Technologies). Binding was assessed as the median FITC fluorescence intensity of CD14⁺ or CD11c⁺ cells, subtracted from cells stained with the secondary antibody only.
For orientation: In flow cytometry, cells or beads pass a laser one at a time.

Assay [5] deals with T3, Fc tagged human SIRPα (ACRO # SIG-H5251, genotype variant 1) (human, UniProt P78324 31-370, limits assumed).
T3 construct: Bought protein; also called Fc tagged human SIRP alpha; recombinant human SIRPα; not shown: Fc tag
In words: ELISA, plate-coated Fc tagged human SIRPα; apparent Kd. As for the experimental part:
The binding of anti-SIRP monoclonal antibodies (mAbs) of the present disclosure to SIRP alpha (SIRPα) was determined by solid phase ELISA using an Fc tagged human SIRP alpha. Binding by soluble anti-SIRP antibodies was measured in vitro.
Fc tagged human SIRPα (ACRO # SIG-H5251, genotype variant 1) is adsorbed to high-binding microtiter plates at a concentration of 1 μg/ml diluted in phosphate buffered saline (PBS) overnight at 4° C. The coating solution is removed, the wells are washed and then blocked with 75% casein in PBS containing 0.5% Tween 20 (PBST) for 60 minutes at room temperature while shaking. Blocking solution is removed, the wells are washed and incubated for 60 minutes at room temperature while shaking with either murine or human anti-SIRP mAbs diluted in PBST at a starting concentration of 30 μg/ml and reducing the concentration in 3-fold serial dilutions. Wells are washed three times with PBST and incubated for 60 minutes at room temperature while shaking with an HRP-labeled donkey anti-mouse or anti-human secondary antibody (Jackson ImmunoResearch Laboratories) diluted 1:10,000 in PBST. The wells are washed and then incubated with peroxidase substrate and the absorbance at 450 nm measured. The apparent affinities were calculated using a non-linear fit model (GraphPad Prism).
(In general: ELISA stands for enzyme-linked immunosorbent assay.)

The target in assay [6] is T2, human SIRPα expressed on cells. In words: flow cytometry on human monocyte-derived macrophages; apparent Kd. As for the experimental part: as §2
Assay [7] addresses T4, Fc tagged human SIRPγ (ACRO # SIG-H5253) (human, UniProt Q9P1W8 29-360).
T4 construct: Bought protein; it includes the transmembrane and cytoplasmic part, which a soluble Fc fusion would not carry; also called Fc tagged human SIRP gamma; recombinant human SIRP gamma; not shown: Fc tag
In words: ELISA, plate-coated Fc tagged human SIRPγ; apparent Kd. The method, then:
The binding of anti-SIRP antibodies of the present disclosure to SIRP gamma (SIRPγ) was determined by ELISA using an Fc tagged human SIRPγ. Binding by soluble anti-SIRP antibodies was measured in vitro.
(§3) Fc tagged human SIRPγ (ACRO # SIG-H5253) is adsorbed to high-binding microtiter plates at a concentration of 1 μg/ml in phosphate buffered saline (PBS) overnight at 4° C. The coating solution is removed, the wells are washed and then blocked with 75% casein in PBS containing 0.5% Tween 20 (PBST) for 60 minutes at room temperature while shaking. Blocking solution is removed, the wells are washed and incubated for 60 minutes at room temperature while shaking with anti-SIRP mAbs diluted in PBST at a starting concentration of 30 μg/ml and reducing the concentration in 3-fold serial dilutions. Wells are washed three times with PBST and incubated for 60 minutes at room temperature while shaking with an HRP labeled donkey anti-mouse or anti-human secondary antibody (Jackson ImmonResearch Laboratories) diluted 1:10,000 in PBST. The wells are washed and then incubated with peroxidase substrate and the absorbance at 450 nm determined. The apparent affinities were calculated using a non-linear fit model (GraphPad Prism).

Assay [8] has as its target T1, human SIRPγ expressed on cells. In words: flow cytometry on Jurkat cells expressing SIRPγ, increasing mAb concentrations (FIG. 4A). As for the experimental part:
FIG. 4A-FIG. 4B. Binding of SIRP mAbs to Jurkat T cells Expressing SIRPγ. Binding of SIRP1, SIRP2, SIRP3, SIRP4 and SIRP9 to Jurkat T-ALL cells was determined. Cells were incubated with increasing concentrations of antibody FIG. 4A; or 10 μg/ml of the anti-SIRP antibodies for 1 hr; FIG. 4B. Cells were washed and then incubated with Alexaflour 647-labelled secondary antibody for 1 hr. Cells were washed and antibody binding measured using flow cytometry.
Jurkat cells were incubated for 60 min at 37° C., 5% CO₂ with increasing concentrations of the anti-SIRP mAbs diluted in phosphate buffered saline (PBS), pH 7.2. Cells were then washed with PBS and incubated for an additional hour with Alexa Fluor-647 labeled donkey anti-mouse antibody (Jackson ImmunoResearch Laboratories) in PBS. Cells were washed and binding analyzed using a C6 Accuri Flow Cytometer (Becton Dickinson). Alternatively, the cells were incubated for 1 h at 37° C. with the saturating concentration of 10 μg/ml of SIRP mAbs in binding buffer containing 1 mM EDTA (Sigma Aldrich), 1% FBS (Biowest) in PBS (Corning). The cells were then washed and stained for 45 min under the same conditions with donkey anti-mouse IgG fluorescein isothiocyanate (FITC)-linked secondary antibody (Jackson ImmunoResearch Laboratories). The cells were then washed and analyzed by flow cytometry (Attune, Life Technologies).

For assay [9], the target named is T4, Fc tagged human SIRPγ (ACRO # SIG-H5253). In words: ELISA, plate-coated Fc tagged human SIRPγ. As for the experimental part:
as §3

Assay [10] shares this target. In words: blocking ELISA: mAb with human SIRPγ (ACRO # SIG-H5253) on plate-coated HIS tagged human CD47. The method, then: HIS tagged human CD47 (ACRO # CD7-H5227) is adsorbed to high-binding microtiter plates at a concentration of 2 μg/ml diluted in PBS overnight at 4° C. The coating solution is removed, the wells are washed and then blocked with 75% casein in PBS containing 0.5% Tween 20 (PBST) for 60 minutes at room temperature while shaking. Blocking solution is removed, the wells are washed and incubated for 60 minutes at room temperature while shaking with anti-SIRP mAbs diluted in PBST at a starting concentration of 30 μg/ml and reducing the concentration in 3 fold serial dilutions and 0.5 μg/ml of human SIRPγ (ACRO # SIG-H5253). Wells are washed three times with PBST and incubated for 60 minutes at room temperature while shaking with an HRP labeled donkey anti-mouse or anti-human secondary antibody (Jackson ImmunoResearch Laboratories) diluted 1:20,000 in PBST. The wells are washed and then incubated with peroxidase substrate and the absorbance at 450 nm determined. The IC₅₀ was calculated using a non-linear fit model (GraphPad Prism).

The target in assay [11] is HIS tagged human SIRPα (ACRO # SIG-H5225) (human) (UniProt P78324). In words: blocking ELISA: mAb on plate-coated HIS tagged human SIRPα, then Fc tagged human CD47.
HIS tagged human SIRPα (ACRO # SIG-H5225) (human), sequence (P78324 31-370): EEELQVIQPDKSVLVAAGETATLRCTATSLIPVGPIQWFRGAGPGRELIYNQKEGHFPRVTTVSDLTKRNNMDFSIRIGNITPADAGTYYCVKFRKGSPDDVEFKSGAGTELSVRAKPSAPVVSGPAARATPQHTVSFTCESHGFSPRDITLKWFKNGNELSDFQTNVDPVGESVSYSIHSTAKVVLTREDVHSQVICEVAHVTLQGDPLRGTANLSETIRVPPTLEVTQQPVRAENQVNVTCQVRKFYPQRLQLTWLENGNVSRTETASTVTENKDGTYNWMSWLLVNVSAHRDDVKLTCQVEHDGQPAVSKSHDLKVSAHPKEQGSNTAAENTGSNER

T2 sequence (P78324 31-504): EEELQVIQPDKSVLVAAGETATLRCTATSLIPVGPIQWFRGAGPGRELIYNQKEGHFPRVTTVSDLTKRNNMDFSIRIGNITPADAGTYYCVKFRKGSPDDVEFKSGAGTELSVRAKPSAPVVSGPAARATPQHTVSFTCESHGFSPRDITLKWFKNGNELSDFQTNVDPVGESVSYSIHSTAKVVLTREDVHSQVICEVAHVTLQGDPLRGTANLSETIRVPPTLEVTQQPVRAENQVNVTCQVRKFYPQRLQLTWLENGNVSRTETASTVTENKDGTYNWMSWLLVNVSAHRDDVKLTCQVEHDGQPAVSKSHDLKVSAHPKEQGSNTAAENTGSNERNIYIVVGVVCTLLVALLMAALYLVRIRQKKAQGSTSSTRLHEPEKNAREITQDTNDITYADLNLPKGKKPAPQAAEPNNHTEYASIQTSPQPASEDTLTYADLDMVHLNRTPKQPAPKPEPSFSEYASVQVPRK
T4 sequence (Q9P1W8 29-360 limits assumed): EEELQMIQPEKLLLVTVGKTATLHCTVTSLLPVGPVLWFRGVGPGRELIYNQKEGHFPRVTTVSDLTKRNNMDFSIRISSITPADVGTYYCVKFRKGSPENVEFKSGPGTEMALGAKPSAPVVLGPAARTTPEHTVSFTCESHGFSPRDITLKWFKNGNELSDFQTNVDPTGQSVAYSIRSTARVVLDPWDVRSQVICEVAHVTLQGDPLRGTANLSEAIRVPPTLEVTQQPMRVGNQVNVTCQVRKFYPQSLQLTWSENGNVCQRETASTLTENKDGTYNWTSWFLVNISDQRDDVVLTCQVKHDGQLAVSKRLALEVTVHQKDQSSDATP
T1 sequence (Q9P1W8 29-387): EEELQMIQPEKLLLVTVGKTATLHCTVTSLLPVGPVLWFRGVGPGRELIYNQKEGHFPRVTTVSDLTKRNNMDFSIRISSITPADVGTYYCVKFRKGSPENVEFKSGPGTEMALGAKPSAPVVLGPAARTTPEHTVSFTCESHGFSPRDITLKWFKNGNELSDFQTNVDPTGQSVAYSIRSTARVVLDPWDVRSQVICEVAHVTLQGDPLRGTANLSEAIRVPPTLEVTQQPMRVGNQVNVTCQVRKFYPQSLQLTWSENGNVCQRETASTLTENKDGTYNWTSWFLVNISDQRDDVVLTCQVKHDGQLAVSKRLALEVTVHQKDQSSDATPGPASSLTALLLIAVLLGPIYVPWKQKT
T3 sequence (P78324 31-370 limits assumed, change not shown, form in doubt): as the sequence (P78324 31-370) above

As for LSB2.20 (antibody), the Kd in assay [1] came out at 0.95 nM; in [2], 0.75 nM; in assay [3] it was 1.26 nM.

B1: KWAR-23 (antibody, V domains shown)
VH: EVQLQQSGAELVKPGASVKLSCTASGFNIKDYYIHWVQQRTEQGLEWIGRIDPEDGETKYAPKFQDKATITADTSSNTAYLHLSSLTSEDTAVYYCARWGAYWGQGTLVTVSS
VL: QIVLTQSPAIMSASPGEKVTLTCSASSSVSSSYLYWYQQKPGSSPKLWIYSTSNLASGVPARFSGSGSGTSYSLTISSMEAEDAASYFCHQWSSYPRTFGAGTKLELK
On to B1, for which the Kd in assay [4] was 0.0234 nM; in assay [1] it was 0.00622 nM; in [2], 0.00404 nM; in assay [3], 0.00159 nM.

B2: SIRP9 (antibody, V domains shown)
VH: EVQLQESGAELVRPGASVKLSCKALGYTFTDYEIHWVKETPVYGLEWIGDIHPGSGGTANNQKFKGKATLTADKSSNTAYMELSSLTSEDSAVYYCTRAVSGYYAMDYWGQGTSVTVSS
VL: DIQMTQSSSSFSGSLGDRLTINCKASEDIYDRVAWYQQKPGNAPRLLISGTASLETGVLSRFSGSGSGKDYTLSINGLQAEDVATYYCQQYWTTPWTFGGGTKLEIK
notes: detected with anti-mouse secondary antibody in the cell assays
Take B2: the Kd was determined as 0.583 nM in [5]; 0.263 nM in [1]; 0.0937 nM in assay [6]; 0.51 nM in assay [7]; 1.41 nM in [3].

B3: SIRP1 (antibody, mouse IgG1, kappa, V domains shown)
VH: QVQLQQSGAELMKPGASVKISCKATGYSFTKYWIEWVKQRPGHGLEWIGEILPGSVITNYNEKFKGKATFTADTSSNTVYMQLSSLTSEDSAVYYCTKWGLYDSDDGVDYWGQGTTLTVSS
VL: ENVLTQSPAIMSASLGEKVTMSCRASSGVNYMYWYQQKSDASPKLLIYYTSILAPGVPARFSGSGSGNSYSLTISSMEGEDAATYYCQQFTSSPYTFGGGTKLEIKR
notes: Hybridoma-derived mouse mAb
As to B3, the binding result is listed as “no binding” in assay [8] and “no binding (tested: 30 µg/ml)” in assay [9].

B4: SIRP4 (antibody, V domains shown)
VH: EVQLQQSGPDLVKPGASVKISCKASGYSFTDYFLNWVKQSHGKSLEWIGRINPYNGDSFINQNFRDKATLTVDKSSTTAHMDLLSLTSEDSAIYYCGRGGYDGYFIAYFDYWGQGSLVTVSA
VL: DIKLTQSQSSMYSSLGQRVTITCKASQDINSHLSWFQEKPGKSPKTLIYRANRLADGVPSRFSGSGSGQDYFLTISSLEYEDVGIYYCLQYDEFPYTFGGGTKLEIK
notes: as for B2
Take B4: the Kd in assay [5] worked out at 0.161 nM; in [4], 0.05 nM; in assay [6] it was 0.0207 nM; in [7], 0.274 nM. Also, the IC50 is 0.44 nM in assay [10] and 0.71 nM in assay [11].

What is called IC50 is the concentration needed to halve the response being measured. The low end stands for higher potency, the high end for lower potency.

(Values after US20200297842A1 (published 2020).)
